Test results reported in article PMC9892613, “Thermodynamic analysis of an entropically driven, high-affinity nanobody-HIV p24 interaction” (Biophysical Journal, 2022).

Target: T1, HIV-1 capsid protein p24 (His-p24) (HIV-1 group M subtype B, NY5/NL4-3 …, UniProt P12493)
T1 construct: capsid protein p24 of HIV-1, the cut product of the Gag polyprotein; amplified from the template pWISP98-85 (NIH ARP); also called HIV-1 p24; p24 antigen; source: E. coli BL21-Star(DE3)pLysS, pET3a-His-p24, purified in-house; not shown: His6-Cys, N-terminal, kept
Experiment: BLI; in the same nanobody storage buffer (Fig. S5)
Settings: both partners purified

B1: nanobody 48G11 (59H10 F93D) (VHH)
VHH: DVQLQESGGGLVQAGGSLRLSCAASGSISRFNAMGWWRQAPGKEREFVARIVKGFDPVLADSVKGRFTISIDSAENTLALQMNRLKPEDTAVYYCDAALDTAYWGQGTQVTVSS
notes: as the chain of m2 (59H10, PDB 5O2U chain B) with F93D; made by site-directed mutagenesis; Artificial variant of 59H10 with one changed residue; also called 48G11 (F93D)
binding result: no binding
